Experimental data as given in US20240425614A1 (NARA MEDICAL UNIVERSITY, published 2024).
Numbering of substitutions follows the chain as printed.

What was measured:
[1] = molecular target: von Willebrand factor (VWF) multimer in human plasma, P04275
[2] = molecular target: T1, ADAMTS13 in normal human plasma (human, UniProt Q76LX8 75-1427); experiment: cell-based or functional assay
T1 sequence (looked up): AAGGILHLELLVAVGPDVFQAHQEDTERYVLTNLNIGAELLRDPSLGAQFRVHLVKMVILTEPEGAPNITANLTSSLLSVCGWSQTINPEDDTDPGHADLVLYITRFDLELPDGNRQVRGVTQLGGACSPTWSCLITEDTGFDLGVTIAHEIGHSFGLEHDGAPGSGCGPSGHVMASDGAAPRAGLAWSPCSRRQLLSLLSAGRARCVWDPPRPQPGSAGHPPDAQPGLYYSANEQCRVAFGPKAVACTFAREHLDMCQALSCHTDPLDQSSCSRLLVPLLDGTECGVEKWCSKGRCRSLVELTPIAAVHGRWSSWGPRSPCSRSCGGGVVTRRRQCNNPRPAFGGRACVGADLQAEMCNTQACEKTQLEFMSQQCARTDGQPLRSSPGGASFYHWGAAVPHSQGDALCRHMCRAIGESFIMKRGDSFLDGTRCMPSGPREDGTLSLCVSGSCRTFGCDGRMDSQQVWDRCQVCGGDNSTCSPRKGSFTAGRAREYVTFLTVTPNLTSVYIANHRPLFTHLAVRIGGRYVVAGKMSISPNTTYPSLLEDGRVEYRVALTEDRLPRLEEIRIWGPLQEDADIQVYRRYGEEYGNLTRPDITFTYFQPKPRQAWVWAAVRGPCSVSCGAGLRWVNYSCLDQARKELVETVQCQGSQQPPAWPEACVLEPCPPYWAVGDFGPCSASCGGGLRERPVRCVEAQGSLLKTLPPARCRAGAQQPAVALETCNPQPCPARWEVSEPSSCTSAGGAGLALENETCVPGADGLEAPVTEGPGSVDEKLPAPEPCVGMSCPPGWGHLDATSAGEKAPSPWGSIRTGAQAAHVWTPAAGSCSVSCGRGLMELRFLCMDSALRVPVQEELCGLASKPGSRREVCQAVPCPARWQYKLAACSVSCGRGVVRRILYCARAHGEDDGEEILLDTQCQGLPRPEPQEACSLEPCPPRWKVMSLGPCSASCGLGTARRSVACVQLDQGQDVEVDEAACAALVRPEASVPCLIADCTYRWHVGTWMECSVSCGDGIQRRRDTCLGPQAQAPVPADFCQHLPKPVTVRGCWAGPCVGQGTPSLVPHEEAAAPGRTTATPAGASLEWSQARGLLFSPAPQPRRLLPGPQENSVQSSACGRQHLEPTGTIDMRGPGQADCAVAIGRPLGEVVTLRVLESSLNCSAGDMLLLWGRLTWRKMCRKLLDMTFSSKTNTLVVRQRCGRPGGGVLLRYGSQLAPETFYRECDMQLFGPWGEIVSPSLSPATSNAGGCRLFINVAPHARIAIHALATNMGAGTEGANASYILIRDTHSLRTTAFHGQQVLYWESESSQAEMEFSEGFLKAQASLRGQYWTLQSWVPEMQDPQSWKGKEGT

B1: ADAMTS13 in normal human plasma (protein)
chain: T1 sequence (looked up)
VWF multimer analysis (SDS-agarose gel, Western blot) of human plasma under high shear stress [1]: more deficiency in high-molecular-weight VWF multimer and stronger cleavage of VWF were shown with increase in shear stress of 108 dyne/cm^2, 216 dyne/cm^2, and 324 dyne/cm^2

B2: 1G2 antibody (antibody, mouse IgG1, kappa, V domains shown)
VH: QVQLRESGPGLVAPSQSLSITCTVSGFSLPRYGIHWVRQPPGKGLEWLGVIWAGGSTDYDSALMSRLSISKDTSKSQVFLKMSSLQTDDTAIYYCARAGGSQPFDYWGQGTTLTVSS
VL: DIKMTQSPSSMYASLGERVTITCKASRDINTYLSWFQQKPGKSPKTLISRANRLVDGVPSRFSGSGSGQDYSLSISSLEYEDMGFYYCLQYDEFPWTFGGGTKLVIKR
ID50 concentration on the VWF cleaving activity of ADAMTS13 (ADAMTS13 activity remaining in human plasma, ELISA) [2]: ~7.28 µg/mL

B3: 12D10 antibody (antibody, mouse IgG1, kappa, V domains shown)
VH: QVQLKESGPGLVAPSQSLSITCTVSGFSLTRYGVHWVRQPPGKGLEWLGVIWAGGSTNYKSALMSRLNITKDNSKSQVFLKMNGLQTDDTAIYFCARAGGSSSFDYWGQGTTLTVSS
VL: B2 VL with Y12N, R27Q, S34G, S49Y, D70G, S74T, F85I, V105E
ID50 concentration on the VWF cleaving activity of ADAMTS13 (ADAMTS13 activity remaining in human plasma, ELISA) [2]: ~25.4 µg/mL

B4: 9A7 antibody (antibody, mouse IgG2b, kappa, V domains shown)
VH: QVQLKESGPGLVAPSQSLSITCTVSGFSLTGYGIHWVRQPPGKGLEWLGVIWADGTTNSNSALMSRLSISKDNSKSQVFLKMTSLQTDDTAMYHCARAGGSQPFDYWGQGTTLTVSS
VL: B2 VL with R27Q, T31S, S49F, S74T, G84E, F85I, V105E
ID50 concentration on the VWF cleaving activity of ADAMTS13 (ADAMTS13 activity remaining in human plasma, ELISA) [2]: ~19.5 µg/mL
